Two molecules from paper PMC8602292, “Acyl carrier protein promotes MukBEF action in Escherichia coli chromosome organization-segregation” (Nature Communications, 2021) can be followed below.

Series [1] concerns the target T1, MukB^KRK (K1114E, R1122E and K1125E) (Escherichia coli, UniProt P22523 1-1486, K1114E | R1122E | K1125E).
T1 construct: E. coli MukB, triple charge-reversed mutant; source: E. coli FL01 (mukB 3xFLAG C3013I), purified (TALON, HiTrap Heparin, Superdex 200); not shown: His tag, C-terminal, kept
T1 sequence (looked up): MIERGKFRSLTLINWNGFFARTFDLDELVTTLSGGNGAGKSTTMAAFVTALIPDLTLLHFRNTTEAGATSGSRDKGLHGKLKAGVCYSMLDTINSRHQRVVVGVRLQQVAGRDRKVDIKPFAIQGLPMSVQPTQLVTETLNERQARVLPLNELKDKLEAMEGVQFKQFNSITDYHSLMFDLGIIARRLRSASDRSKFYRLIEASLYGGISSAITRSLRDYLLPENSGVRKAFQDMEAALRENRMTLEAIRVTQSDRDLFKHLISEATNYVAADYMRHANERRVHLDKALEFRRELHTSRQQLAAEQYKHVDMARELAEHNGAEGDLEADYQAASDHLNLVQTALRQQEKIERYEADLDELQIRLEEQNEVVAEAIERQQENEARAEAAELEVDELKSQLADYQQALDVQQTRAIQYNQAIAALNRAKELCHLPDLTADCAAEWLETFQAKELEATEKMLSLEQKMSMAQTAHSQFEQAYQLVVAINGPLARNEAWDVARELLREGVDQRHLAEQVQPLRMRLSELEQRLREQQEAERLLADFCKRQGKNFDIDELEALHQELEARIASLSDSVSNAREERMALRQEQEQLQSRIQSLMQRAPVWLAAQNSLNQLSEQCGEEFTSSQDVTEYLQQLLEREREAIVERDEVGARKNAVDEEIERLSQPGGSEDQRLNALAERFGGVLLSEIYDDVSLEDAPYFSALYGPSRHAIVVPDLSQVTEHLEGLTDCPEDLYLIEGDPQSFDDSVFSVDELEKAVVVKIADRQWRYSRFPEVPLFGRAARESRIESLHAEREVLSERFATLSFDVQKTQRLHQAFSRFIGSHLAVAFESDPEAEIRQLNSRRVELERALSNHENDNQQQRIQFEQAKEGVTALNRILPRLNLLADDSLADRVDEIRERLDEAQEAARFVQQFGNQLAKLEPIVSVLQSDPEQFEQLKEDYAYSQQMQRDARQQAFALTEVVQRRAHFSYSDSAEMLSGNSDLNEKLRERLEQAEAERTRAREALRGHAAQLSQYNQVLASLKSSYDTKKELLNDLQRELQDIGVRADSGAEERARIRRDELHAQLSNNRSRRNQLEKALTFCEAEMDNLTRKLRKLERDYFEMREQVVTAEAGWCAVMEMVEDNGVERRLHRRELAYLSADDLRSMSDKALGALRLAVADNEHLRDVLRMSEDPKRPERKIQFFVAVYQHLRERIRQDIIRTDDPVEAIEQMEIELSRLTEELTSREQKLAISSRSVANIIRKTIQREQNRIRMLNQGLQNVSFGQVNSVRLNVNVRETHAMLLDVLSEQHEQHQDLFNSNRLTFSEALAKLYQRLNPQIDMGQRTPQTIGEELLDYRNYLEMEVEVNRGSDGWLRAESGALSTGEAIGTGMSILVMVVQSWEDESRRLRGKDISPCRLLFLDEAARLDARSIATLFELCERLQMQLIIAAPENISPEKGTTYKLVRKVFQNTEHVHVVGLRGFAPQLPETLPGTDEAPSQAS
Kind of series: native gel or EMSA; BN-PAGE; MukB or MukB^HN (0-4.5 μM) with MukF (1.5 μM), MukE (3 μM) and AcpP as indicated or none; 1 mM DTT, 1 mM MgCl2, 30 min at 22 °C; 3-12% native Bis-Tris gels; AMPPNP in some samples. Particulars: both partners purified. In general terms: In EMSA bound probe runs differently from free probe, usually more slowly.

Series [2] concerns the molecule itself. Kind of series: native MS; mixtures of MukB, MukE, MukF and AcpP at various concentrations of MukB; 200 mM ammonium acetate pH 8.0.

B1: MukE (MukE-His) (natural protein, Escherichia coli, UniProt P22524 1-234, looked up)
chain: MSSTNIEQVMPVKLAQALANPLFPALDSALRSGRHIGLDELDNHAFLMDFQEYLEEFYARYNVELIRAPEGFFYLRPRSTTLIPRSVLSELDMMVGKILCYLYLSPERLANEGIFTQQELYDELLTLADEAKLLKLVNNRSTGSDVDRQKLQEKVRSSLNRLRRLGMVWFMGHDSSKFRITESVFRFGADVRAGDDPREAQRRLIRDGEAMPIENHLQLNDETEENQPDSGEEE
notes: MukE, the KITE protein of Escherichia coli MukBEF; The end of the tag is read from the printed name 'MukE-His'; also called KITE protein MukE; source: E. coli C3013I (NEB), pET vector, purified (TALON, HiTrap DEAE FF, Superdex 200)
For the molecule B1, the binding result in series [1] is recorded as “binds”.

B2: MukF (His-MukF) (natural protein, Escherichia coli, UniProt P60293 1-440, looked up)
chain: MSEFSQTVPELVAWARKNDFSISLPVDRLSFLLAVATLNGERLDGEMSEGELVDAFRHVSDAFEQTSETIGVRANNAINDMVRQRLLNRFTSEQAEGNAIYRLTPLGIGITDYYIRQREFSTLRLSMQLSIVAGELKRAADAAEEGGDEFHWHRNVYAPLKYSVAEIFDSIDLTQRLMDEQQQQVKDDIAQLLNKDWRAAISSCELLLSETSGTLRELQDTLEAAGDKLQANLLRIQDATMTHDDLHFVDRLVFDLQSKLDRIISWGQQSIDLWIGYDRHVHKFIRTAIDMDKNRVFAQRLRQSVQTYFDEPWALTYANADRLLDMRDEEMALRDEEVTGELPEDLEYEEFNEIREQLAAIIEEQLAVYKTRQVPLDLGLVVREYLSQYPRARHFDVARIVIDQAVRLGVAQADFTGLPAKWQPINDYGAKVQAHVIDKY
notes: MukF, the kleisin of Escherichia coli MukBEF; The end of the tag is read from the printed name 'His-MukF'; also called kleisin MukF; source: E. coli C3013I (NEB), pET vector, purified (TALON, HiTrap DEAE FF, Superdex 200)
B2: the binding result in series [2] and in series [1] was “binds” each time.
